System: Escherichia coli TOP10
Assay: shrunken log2 fold change of peptide-encoding DNA abundance (4.5 h post-induction vs induction); higher = less antimicrobial activity (less host growth inhibition)
Details: time post-induction: 4.5 h; library: site-saturation at positions 5, 18, 19, 20
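Note: peptides expressed intracellularly from a pBAD plasmid library in pooled LB shake-flask culture, induced with 0.3% L-arabinose, DNA abundance read by NGS, three biological replicates, DESeq2 with apeglm shrinkage.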

RRIRGRPPRLPRPRPRPFSNPRP
shrunken log2 fold change: 0.064

RRIRGRPPRLPRPRPRPFTLPRP
shrunken log2 fold change: -0.109

RRIRGRPPRLPRPRPRPFVMPRP
shrunken log2 fold change: -0.0182

RRIRGRPPRLPRPRPRPFVWPRP
shrunken log2 fold change: 0.278

RRIRGRPPRLPRPRPRPFVYPRP
shrunken log2 fold change: 0.077

RRIRGRPPRLPRPRPRPFWEPRP
shrunken log2 fold change: 0.577

RRIRGRPPRLPRPRPRPFWMPRP
shrunken log2 fold change: 0.103

RRIRGRPPRLPRPRPRPFWVPRP
shrunken log2 fold change: 0.15

RRIRGRPPRLPRPRPRPFYKPRP
shrunken log2 fold change: -0.0686

RRIRGRPPRLPRPRPRPGAKPRP
shrunken log2 fold change: 0.924

RRIRGRPPRLPRPRPRPGCEPRP
shrunken log2 fold change: 2.03

RRIRGRPPRLPRPRPRPGCWPRP
shrunken log2 fold change: 1.39

RRIRGRPPRLPRPRPRPGDKPRP
shrunken log2 fold change: 0.425

RRIRGRPPRLPRPRPRPGEHPRP
shrunken log2 fold change: 0.587

RRIRGRPPRLPRPRPRPGFDPRP
shrunken log2 fold change: 0.97

RRIRGRPPRLPRPRPRPGFMPRP
shrunken log2 fold change: 0.488

RRIRGRPPRLPRPRPRPGFWPRP
shrunken log2 fold change: 0.581

RRIRGRPPRLPRPRPRPGGQPRP
shrunken log2 fold change: 0.672

RRIRGRPPRLPRPRPRPGHFPRP
shrunken log2 fold change: -0.0383

RRIRGRPPRLPRPRPRPGHLPRP
shrunken log2 fold change: 0.0503

RRIRGRPPRLPRPRPRPGIHPRP
shrunken log2 fold change: 0.251

RRIRGRPPRLPRPRPRPGKPPRP
shrunken log2 fold change: 0.516

RRIRGRPPRLPRPRPRPGLRPRP
shrunken log2 fold change: 0.875

RRIRGRPPRLPRPRPRPGLWPRP
shrunken log2 fold change: 1.03

RRIRGRPPRLPRPRPRPGMWPRP
shrunken log2 fold change: 0.78

RRIRGRPPRLPRPRPRPGNIPRP
shrunken log2 fold change: -0.104

RRIRGRPPRLPRPRPRPGPGPRP
shrunken log2 fold change: 1.65

RRIRGRPPRLPRPRPRPGQQPRP
shrunken log2 fold change: 0.0088

RRIRGRPPRLPRPRPRPGRAPRP
shrunken log2 fold change: 0.84

RRIRGRPPRLPRPRPRPGRCPRP
shrunken log2 fold change: 1.09

RRIRGRPPRLPRPRPRPGSVPRP
shrunken log2 fold change: 0.484

RRIRGRPPRLPRPRPRPGTEPRP
shrunken log2 fold change: 0.731

RRIRGRPPRLPRPRPRPGVFPRP
shrunken log2 fold change: 0.465

RRIRGRPPRLPRPRPRPGVGPRP
shrunken log2 fold change: 1.11

RRIRGRPPRLPRPRPRPGVHPRP
shrunken log2 fold change: 0.597

RRIRGRPPRLPRPRPRPGVMPRP
shrunken log2 fold change: 1.05

RRIRGRPPRLPRPRPRPGWEPRP
shrunken log2 fold change: 0.506

RRIRGRPPRLPRPRPRPGYPPRP
shrunken log2 fold change: 0.115

RRIRGRPPRLPRPRPRPGYYPRP
shrunken log2 fold change: -0.301

RRIRGRPPRLPRPRPRPHAQPRP
shrunken log2 fold change: 0.868

RRIRGRPPRLPRPRPRPHCGPRP
shrunken log2 fold change: -0.0798

RRIRGRPPRLPRPRPRPHCPPRP
shrunken log2 fold change: 0.084

RRIRGRPPRLPRPRPRPHDQPRP
shrunken log2 fold change: 0.62

RRIRGRPPRLPRPRPRPHFVPRP
shrunken log2 fold change: 0.466

RRIRGRPPRLPRPRPRPHFWPRP
shrunken log2 fold change: 0.428

RRIRGRPPRLPRPRPRPHIQPRP
shrunken log2 fold change: 0.192

RRIRGRPPRLPRPRPRPHKCPRP
shrunken log2 fold change: -0.111

RRIRGRPPRLPRPRPRPHLEPRP
shrunken log2 fold change: 0.381

RRIRGRPPRLPRPRPRPHLMPRP
shrunken log2 fold change: -0.0148

RRIRGRPPRLPRPRPRPHNPPRP
shrunken log2 fold change: -0.0429

RRIRGRPPRLPRPRPRPHNTPRP
shrunken log2 fold change: -0.277

RRIRGRPPRLPRPRPRPHPDPRP
shrunken log2 fold change: 0.502

RRIRGRPPRLPRPRPRPHPIPRP
shrunken log2 fold change: -0.0927

RRIRGRPPRLPRPRPRPHPSPRP
shrunken log2 fold change: 0.445

RRIRGRPPRLPRPRPRPHPVPRP
shrunken log2 fold change: 0.412

RRIRGRPPRLPRPRPRPHREPRP
shrunken log2 fold change: 0.121

RRIRGRPPRLPRPRPRPHRYPRP
shrunken log2 fold change: 0.0948

RRIRGRPPRLPRPRPRPHTQPRP
shrunken log2 fold change: 0.0483

RRIRGRPPRLPRPRPRPHTTPRP
shrunken log2 fold change: 0.333

RRIRGRPPRLPRPRPRPHVSPRP
shrunken log2 fold change: 0.396

RRIRGRPPRLPRPRPRPHWDPRP
shrunken log2 fold change: 0.645

RRIRGRPPRLPRPRPRPIAIPRP
shrunken log2 fold change: 0.216

RRIRGRPPRLPRPRPRPIDTPRP
shrunken log2 fold change: 0.306

RRIRGRPPRLPRPRPRPIEDPRP
shrunken log2 fold change: 0.0783

RRIRGRPPRLPRPRPRPIEQPRP
shrunken log2 fold change: 0.109

RRIRGRPPRLPRPRPRPIIEPRP
shrunken log2 fold change: 0.863

RRIRGRPPRLPRPRPRPIIYPRP
shrunken log2 fold change: 0.0582

RRIRGRPPRLPRPRPRPIKMPRP
shrunken log2 fold change: 0.441

RRIRGRPPRLPRPRPRPIMKPRP
shrunken log2 fold change: 0.227

RRIRGRPPRLPRPRPRPIMYPRP
shrunken log2 fold change: 0.0639

RRIRGRPPRLPRPRPRPINCPRP
shrunken log2 fold change: -0.0247

RRIRGRPPRLPRPRPRPINYPRP
shrunken log2 fold change: 0.000824

RRIRGRPPRLPRPRPRPIQAPRP
shrunken log2 fold change: 1.16

RRIRGRPPRLPRPRPRPIQLPRP
shrunken log2 fold change: 0.043

RRIRGRPPRLPRPRPRPISVPRP
shrunken log2 fold change: -0.0351

RRIRGRPPRLPRPRPRPITEPRP
shrunken log2 fold change: 0.000184

RRIRGRPPRLPRPRPRPITQPRP
shrunken log2 fold change: -0.0614

RRIRGRPPRLPRPRPRPITYPRP
shrunken log2 fold change: 0.265

RRIRGRPPRLPRPRPRPIWNPRP
shrunken log2 fold change: 0.37

RRIRGRPPRLPRPRPRPIWRPRP
shrunken log2 fold change: 0.744

RRIRGRPPRLPRPRPRPIYDPRP
shrunken log2 fold change: -0.259

RRIRGRPPRLPRPRPRPIYNPRP
shrunken log2 fold change: -0.185

RRIRGRPPRLPRPRPRPKADPRP
shrunken log2 fold change: 1.29

RRIRGRPPRLPRPRPRPKAGPRP
shrunken log2 fold change: 1.17

RRIRGRPPRLPRPRPRPKCPPRP
shrunken log2 fold change: 0.625

RRIRGRPPRLPRPRPRPKCSPRP
shrunken log2 fold change: 0.704

RRIRGRPPRLPRPRPRPKDNPRP
shrunken log2 fold change: 0.578

RRIRGRPPRLPRPRPRPKGAPRP
shrunken log2 fold change: 1.06

RRIRGRPPRLPRPRPRPKGFPRP
shrunken log2 fold change: -0.0463

RRIRGRPPRLPRPRPRPKIVPRP
shrunken log2 fold change: 0.278

RRIRGRPPRLPRPRPRPKKFPRP
shrunken log2 fold change: 0.582

RRIRGRPPRLPRPRPRPKMTPRP
shrunken log2 fold change: 1.83

RRIRGRPPRLPRPRPRPKNEPRP
shrunken log2 fold change: 0.713

RRIRGRPPRLPRPRPRPKNPPRP
shrunken log2 fold change: 0.489

RRIRGRPPRLPRPRPRPKPFPRP
shrunken log2 fold change: 0.601

RRIRGRPPRLPRPRPRPKQKPRP
shrunken log2 fold change: -0.0523

RRIRGRPPRLPRPRPRPKQLPRP
shrunken log2 fold change: -0.00285

RRIRGRPPRLPRPRPRPKQQPRP
shrunken log2 fold change: 0.228

RRIRGRPPRLPRPRPRPKSPPRP
shrunken log2 fold change: 0.677

RRIRGRPPRLPRPRPRPKTQPRP
shrunken log2 fold change: 0.929

RRIRGRPPRLPRPRPRPKWRPRP
shrunken log2 fold change: 0.795

RRIRGRPPRLPRPRPRPKYYPRP
shrunken log2 fold change: 0.0864

RRIRGRPPRLPRPRPRPLAQPRP
shrunken log2 fold change: 0.888

RRIRGRPPRLPRPRPRPLCDPRP
shrunken log2 fold change: 0.778

RRIRGRPPRLPRPRPRPLDVPRP
shrunken log2 fold change: 0.326

RRIRGRPPRLPRPRPRPLEFPRP
shrunken log2 fold change: 0.319

RRIRGRPPRLPRPRPRPLENPRP
shrunken log2 fold change: 0.766

RRIRGRPPRLPRPRPRPLFGPRP
shrunken log2 fold change: 0.584

RRIRGRPPRLPRPRPRPLHWPRP
shrunken log2 fold change: 0.627

RRIRGRPPRLPRPRPRPLLCPRP
shrunken log2 fold change: 1.17

RRIRGRPPRLPRPRPRPLLNPRP
shrunken log2 fold change: 0.76

RRIRGRPPRLPRPRPRPLMIPRP
shrunken log2 fold change: 0.139

RRIRGRPPRLPRPRPRPLMLPRP
shrunken log2 fold change: 0.462

RRIRGRPPRLPRPRPRPLMRPRP
shrunken log2 fold change: 1.61

RRIRGRPPRLPRPRPRPLPFPRP
shrunken log2 fold change: -0.0338

RRIRGRPPRLPRPRPRPLPKPRP
shrunken log2 fold change: 0.943

RRIRGRPPRLPRPRPRPLPLPRP
shrunken log2 fold change: 0.627

RRIRGRPPRLPRPRPRPLQDPRP
shrunken log2 fold change: 0.98

RRIRGRPPRLPRPRPRPLQHPRP
shrunken log2 fold change: 1.18

RRIRGRPPRLPRPRPRPLQRPRP
shrunken log2 fold change: 0.762

RRIRGRPPRLPRPRPRPLRQPRP
shrunken log2 fold change: 0.62

RRIRGRPPRLPRPRPRPLRVPRP
shrunken log2 fold change: 1

RRIRGRPPRLPRPRPRPLSFPRP
shrunken log2 fold change: 0.121

RRIRGRPPRLPRPRPRPLTHPRP
shrunken log2 fold change: 0.168

RRIRGRPPRLPRPRPRPLWEPRP
shrunken log2 fold change: 1.51

RRIRGRPPRLPRPRPRPLWRPRP
shrunken log2 fold change: 0.625

RRIRGRPPRLPRPRPRPMAIPRP
shrunken log2 fold change: 0.0503

RRIRGRPPRLPRPRPRPMCEPRP
shrunken log2 fold change: 2.46

RRIRGRPPRLPRPRPRPMCGPRP
shrunken log2 fold change: 0.645

RRIRGRPPRLPRPRPRPMCQPRP
shrunken log2 fold change: 0.62

RRIRGRPPRLPRPRPRPMDIPRP
shrunken log2 fold change: 0.0445

RRIRGRPPRLPRPRPRPMDLPRP
shrunken log2 fold change: 0.241

RRIRGRPPRLPRPRPRPMEFPRP
shrunken log2 fold change: 0.0673

RRIRGRPPRLPRPRPRPMFCPRP
shrunken log2 fold change: 0.178

RRIRGRPPRLPRPRPRPMFKPRP
shrunken log2 fold change: 0.0694

RRIRGRPPRLPRPRPRPMFNPRP
shrunken log2 fold change: -0.192

RRIRGRPPRLPRPRPRPMFRPRP
shrunken log2 fold change: 0.303

RRIRGRPPRLPRPRPRPMGLPRP
shrunken log2 fold change: -0.0139

RRIRGRPPRLPRPRPRPMHHPRP
shrunken log2 fold change: 0.533

RRIRGRPPRLPRPRPRPMHMPRP
shrunken log2 fold change: 0.347

RRIRGRPPRLPRPRPRPMIDPRP
shrunken log2 fold change: 0.967

RRIRGRPPRLPRPRPRPMIEPRP
shrunken log2 fold change: 0.953

RRIRGRPPRLPRPRPRPMITPRP
shrunken log2 fold change: 0.24

RRIRGRPPRLPRPRPRPMKAPRP
shrunken log2 fold change: 0.231

RRIRGRPPRLPRPRPRPMMIPRP
shrunken log2 fold change: -0.0387

RRIRGRPPRLPRPRPRPMMMPRP
shrunken log2 fold change: 0.574

RRIRGRPPRLPRPRPRPMMSPRP
shrunken log2 fold change: 0.136

RRIRGRPPRLPRPRPRPMMTPRP
shrunken log2 fold change: 3.31

RRIRGRPPRLPRPRPRPMPKPRP
shrunken log2 fold change: 0.884

RRIRGRPPRLPRPRPRPMPSPRP
shrunken log2 fold change: 0.431
